Test results from the DeepSol protein solubility set.

Experiment: soluble on expression in E. coli; label from the status in PepcDB or PDB records

Row | Sequence | soluble on expression in E. coli
1 | MSQFDLTPPSPAQRDALIAGLSDEEQRVLLHHGTEAPFCGVFLDNKLDGVYTCRLCGLPLFRSNAKFDSGTGWPSFFAPYDPAHVREIRDTSYGMVRTEIVCARCDSHLGHVFPDGPPPTGERHSLNSVSLAFTEDGQPLPNPLQRAGAETQPA | soluble
2 | MGSDKIHHHHHHMRIGVAGVGKLGEFHTNLLKQIAAEASDVEFSGVFDLNPERLQEIGKKYGVACFSTLEELAASCDAAVIATTTSSHYAIARQLLEARLHLFIEKPITATLEEADKLIRIEQEKGLTIQVGHIERFNPALLAVEPYIGEPMYIQAERLSGFSRRVTDVSVVLDLMIHDIDLVLSLIKSDIRSIAASGVKVFSNELDMATARIEFENGAIANVTASRLSRSKLRKMRFFTRNPKSYASLDFTSGKSEVFRLVPPDQLSSKNPIKNFATKKILEQFGEIQESLKEMALDYVSPDVPKINALKEELEQFIDAIRKGKPAKVTSEEGRRALMVAGKITDEIRNNTADLD | not soluble
3 | MSNDQLKSKLREFFDRQPDQSEKAHQDSKIFEVLYSQFLENQHCIDWNSWKFLEEKHQVTLKDLEPFDKSRFNILNKLAVIKLNGGLGTTMGCSKAKSLVEVREGYTFMDLAVLEHQKMCEAHNVDTPLYLMNSFYTDEDTKKYLAEKGYSNVKTFVQSKCPRLDAETKLPIEDENEDWGDDAWCPPGHGNIFQSLQNSGVLDQLLADGREIIFVSNIDNTGANTDLQIVQLMLDKNVDYIMECTPKTQVDVKGGTLIDIGGRMMHLEMPQVPAENLPDFCSTKVFKIFNTNNIYVNLKAVKKLLPDIKSEIIVNKKTIRSREVLQLEFSIGGCIKNFDNALCVHVERKRFRPVKNLGDLLSLRSTLCDLDHSTFKVHHNHELGAPPVISLDPSIYNSVEVVDLKFPHPLVMDNCSEFAVVGDVTFGKNVKLSGKVTVNGKTESPGVVPDGTVLKDQEYIAE | not soluble
4 | MSYEMNSLFSSNQQPLGGGPPPQQQSQQQQQPPQSLWSLQQFSQMGAPDNFGNHAVPFMPTLGMLNQYQNPHPLQMVPPQPLVTPSQVLPPSMAEQQRADTIHGFGVLTWLSAKAGLITCKDKMIISFQLKDFCDQMLNDLTSVLRVGFTLSFHAALNETSEYTATIVSPIYGPDADVLFANSQEVDLEAANPTPPNSKDAYSPALEQKAIPALLAIFQRHGLQQIQLSRSFSLHSQMSNCGDDELFRYVGTSSLKRRQFVERRTHLFRLQNDDSIILQYPAVYQAVYQLASYLLRRGGATSIQSLFDYYGSPDIMPEVRSHTGEGRQDFLNLLTAHNWVFALFPNRTYVSVRRNLPNYDYVGFIKQHFQEMDITRSQQMAYGQPPRGIQRTMSAQMGSSFATGRPQNLLMQHQHAMTPAATRSGSLWDSQSSLSQSGNSGDQWSPLFSPSTWSNNTNANPRLTSLTPLSSMNETLLSGVNYNSLLAMPPSAKNERSIGVQADDFLDRMSYNPIGRTGCTCQCQCGRGGAAIIGNTRGSSSRASGGSASPPSADGASQIDRFSPSNHAGSIGDRTLTAAALGVGLVDQQPAAPNHDGSANQPQRYYDPFGTADLLNGTRLNSLRIGN | not soluble
5 | MAHHHHHHMLRSPQPRFPQHVPGAYPPQQQQQMPPQPQSQPQMPMNAQPPAQAIQQQLEHQDVVHDTQFDYYGQLLATASSDRTIGIHVVQNGQLQRIATLTGHEGPVWMVSWAHPRFGMALASAGYDHKAIIWKEMSQSSKQWAPVHVIDCHHGSVNAVQWAPETPMVATASSDGTVAVTVFEGGVWRDSLKLSNNSNNIAHAMGATSVSFAPMRPSLGGAVLLASGGCDSQVRLWCLQEGSPMANSFELLEVLEGHTDWVRDVAFAPLCAATRHAVLASCGQDKSVIIHRKPWDQLGALIQERQRSSSTNGPQQYLQKESGGIWERSVVLFEEPVWRLSWSPAEEVLVVTTGDSEVYILRENGEFTQPWLKTPLSEYQSGTR | not soluble
6 | MGSDKIHHHHHHMKVLLTRPEGRNQQMADALTQLGIGYHLCPLLEITPSNTPPKASFFSADKLVFISANAVYFAANNLNNHFPMHCEYFAVGEATQMALAEYQVVSQSAPSSQQDSEGLLSLSQLQDVELQKITIVRGEGGRETLAQTLSERGANVDYWQVYQRSKPALDPKSVCQQWQDLGIDTLVLTSGEALANLMELVPKELFAWLRSCHMIVPSHRVQVQAISQGFHRVSNANGASTQAILTALAL | not soluble
7 | MGSDKIHHHHHHMMIMLDPFSEKAKELLKGFGSINDFMDAIPKIVSVDDVIERIRVVKNEKLIDKFLDQDNVMDLAQFYALLGALSYSPYGIELELVKKANLIIYSERLKRKKEIKPEEISIDVSTAIEFPTEDVRKIERVYGKIPEYTMKISDFLDLVPDEKLANYYIYEGRVYLKREDLIRIWSKAFERNVERGVNMLYEIRDELPEFYRKVLGEIQAFAEEEFGRKFGEIQGGKLRPEFFPPCIKNALKGVPQGIRNYAITVLLTSFLSYARICPNPPRRNVRVKDCIKDIRVITEEILPIIIEAANRCSPPLFEDQPNEIKNIWYHLGFGYTANPSLEDSGNSTWYFPPNCEKIRANAPQLCTPDKHCKYIRNPLTYYLRRLYLEGRRNAPKRGNKRGKKELLHQ | not soluble
8 | MKEVRIVFQPGEISVPVAAGTTIMEAMNRSGLGEDFPCGGRGKCGKCRVKVREGREDFTAIDEDHLTAQELAEGVRLACATKINRDMMVEMQSPKKLQHHILIDSAARAFHIHPHLVKVFAEIAQPSLSEHKSDWQRLQESLAGLGCSVHDLQAPLSVLRRLPDTLRESTNRVTTIVYGSQVLGVEQGDTTGTLLGMAFDIGTTTIVGYLLDLNSGRELEVVSTLNPQAQYGGDVISRITFAGKEEKGLDTLHQAVTGAMNRLIGEAVDKAGVSRTQLYGISVAANTTMHHLFLGITPRSIGMSPYVSAINQGLVVAPGELGLEINKAGRVFVLPNIAGFVGADTTAVLLASDLEKSDHVTLILDIGTNGEIVLGSKNRMVACSAAAGPAFEGAQITSGMRGADGAIDHISFDHGLSYTVIGNGRPIGICGSALLDGVAGFVELGMINKRGKFLEPEKLTHPSALKLKDRLIKYEETWAFQLVEAGQTRHGRPILITQNDIRELQLAKGAIAAGVRILQEAMGIECEDIKEVLLAGAFGNYLNPHSACVIGLIPRELESRIKTIGNAAGNGAKIALLSAQEFSRAKDLAGGVSFVELGSYPGFNTIFAQNTYFKLD | soluble
9 | MSLDGIIPVVEKKDFLRWFLKEFTLKKRECSWLLNYLMSDDDLMENVHFVEEAERCPKALIMSTNDVHTVPFCFHKYQQVTMDAEKAFHDIRMNPEEAIYIQLHFSGAKHNPNYIAVLEDNPYVPENEDLIAKQKKLAEAFLERSVQSFEEKELLRRIDEALDARDKETFLTLSQQLQHLRQHSDEGHHHHHH | soluble
10 | GAQVSTQKTGAHESIIHYTNINYYKDAASNSANRQDFTQDPGKFTEPVKDIMVKSLPALN | soluble
11 | MQTQQERISTGVKGLDELIEGGLIPGRVYLITGPPGSGKTTFGMQFLLEGARRGEKVAYISLIHKPEEVVRDMVRFDPSVYVYVNNWRLILYDLGPILWRESTKVPTWRSVLSRIREITENEKITRLVIDPLTAIDFPLQDPVEKRVELAKFVRSLENLGVTTYLIAEMVELDKYSEEHYLVSGIIMLHYFMHEGRMIRAIQIFKMRGTKHDPNLKLLKFTDQGLVVYNKSPFEVV | soluble
12 | MGSDKIHHHHHHMNFAMTPEEAKTNEAYCRALIELLYQLADDDYIVAYRGSEWLGLAPHIEEDVAFSSITQNTMGHAVMFYELLEQLGEGDADTLAHERDPALRRNSVYLEKKNGSGTYLDEPHYDWALTVIRHFFYETFKKIRLEALTQSSYVPLAKAAQRVLMEQPYHLAHWKTWLCQLQQSTEEAKNRLMERIDEAWLEILDMLELGLKGGEMVEYQLITDEATIQQQWVKEMNKSLFYVPSQSLQKQEGNGRNGEHTDDLQQALSTCSEVYNSDRHAVW | not soluble
13 | EFIGCNDHTVVIEDDGRRWVTREPALVYFNKHTWFNVVAMIRDSGVSYYCNIASPFVLDREALKYVDYDLDVKVFPNGERRLLDMDEFEQFSKKWRYP | not soluble
14 | MHVTRNVGKSQKLHHVSLKQVLSYLEPHEQEDTKPVTSTKNKGFLLFNSHQNTLNTHMHGAMNSPCIDFVMFSRGQHDEDNMSRRPPWKRERSMSTQHHHLNLSPNEDEELANCLVLLSNSGDAHGGDQHKQHGHGKGKTVKKQKTAQVFQCKACKKVFTSHQALGGHRASHKKVKGCFASQDKEEEEEEEYKEDDDDNDEDEDEEEDEEDKSTAHIARKRSNAHECTICHRVFSSGQALGGHKRCHWLTPSNYLRMTSLHDHHHSVGRPQPLDQPSLDLNLACQEYSVDPTAMSVGMIERDGGGNNHNATSSSWLKLASGDWS | not soluble
15 | MPLVSVVMPVYNSAATLGAAVRSVLTQTHGDLELLVTDDQSSDGSMDLLREFAAQDERVLPRSSPERGGAGRARNLAIERARGDYVAFLDSDDMWLPEKTEKQLAFAAEGTAPLTFTSYFKMDADHDGESTDWVPNGRVIRAREHVDYRAMLVQDHIGALTAMYDRNVLGTRLMPEMRKRQDYALWLSIMRDGADARGLAEPLAVYRAHQAGSLSSNKLSLVEYNWALYREHENLSVPRATRALAGAVWQSLRNSRILEHHHHHH | not soluble
16 | MRYALAACLLLLAASSFVDAKKKKIADDELGELLDNIDADEEKKSVEPAKNPCEDHQCGWGKECVVGKKGEPTCECISKCPELDGDPMDKVCANNNQTFTSLCDLYRERCLCKRKSKECSKAFNAKVHLEYLGECKKLDECTEEHMAQFPERMADWLFQVMKELKKRRELHKLEWEELLSEAENDDEKKHVYPVIWKFCELDTKPHDKSVSHHELIPITAPVIPMESCIKPFLEGCDANNDGNISIKEWGKCLGLKEGEIQERC | not soluble
17 | MGHHHHHHSHMFWRNPLPNIDHELQELLIDRGEDVPSEEEEEEENGFEDRKDDSDDDGGGWITPSNIKQIQQELEQCDVPEDVRVGCLTTDFAMQNVLLQMGLHVLAVNGMLIREARSYILRCHGCFKTTSDMSRVFCSHCGNKTLKKVSVTVSDDGTLHMHFSRNPKVLNPRGLRYSLPTPKGGKYAINPHLTEDQRFPQLRLSQKARQKTNVFAPDYIAGVSPFVENDISSRSATLQVRDSTLGAGRRRLNPNASRKKFVKKR | not soluble
18 | MAHHHHHHMSLTDIEEAETVELLSEDSCSTMSASSEDVGATTVDTSLPLTANATEEQLRRRMLHECACIPELRPQPAWLEESGAAGDGPSASTTEMNWDVAHADHLVVAVRWRVAPTSPGTGCPSLHTTPWVPYAVPLAKVIASRTMAATDTASTVTSTTSSSGGGSSATVQPLGSVQLPLGRSMFLLAAQRSSLVPRAWDSGVAAESLVNVAASISRAQCTLHLHYAAAKTPQAPSSLRTRPVCRSFDVFAISPTTALLGIALQPHQRYHIKRKRGTGKSAHASEDQPCDANGVLTLRVGPYCHVDVALDELPSEPRVSGSAGTCPSITINTYNGRHAHTTRSGQTQDSPAVHRTSACRSGVAREPPAAAMQLQHGSTASLITGDSTAVLATLSEMSDHVALSETSGHEHDGPVVAGSQEVAAAPSHTSITGSLKRRRPAAARGRAAEAVVRRVGNAEAAEGGDVDEADAAVSHSVTTTPSEIVLFTTGMRLSDAEEKTLKELGALVNPHLRLARYARVLAAQRPLVRSVKLLTVLPYVQDVVHQSWLDAVLRTRSLDLPLEGFAYKERKLAGSIESENSFDLRETMRKAPTERQRLFAQQHFWVHKSATPQEPPMNDLKTVVAASGGIITRCVLDADVLVLPKHKPTLSCWRGIAQQLGGTGRASTSSASASTTPTLAQRKQAGVLFVVPDDIFKCVLQQRRLSASSVTLPWQLLTEAAAARGTTGAARVGRRPSQPTRKTPRASTTQRSPRRKSCKRSQ | soluble
